# Measurements as given in PMC11239668.
# Tests used:
# [1] = biological target: filamentous actin (F-actin) polymerized from G-actin purified from rabbit skeletal muscle (rabbit) (UniProt P68135)
# [2] = biological target: filamentous actin (F-actin) polymerized from G-actin purified from rabbit skeletal muscle (rabbit) (UniProt P68135); remark: listed apart in the source
"percent activation of localisation to F-actin (0% inactive optoCAST, 100% ABM only) in live HeLa cells under blue light [1]","percent activation of localisation to F-actin (0% inactive pepCAST, 100% ABM only) in live HeLa cells that co-express SZ21 [2]",Substance
80%,–,ABS optoCAST (ABS opto1: mCherry-AsLOV2(403-540)-ABS) (from UniProt O49003 403-540) (designed binder)
–,> 80%,ABS pepCAST (ABS pep6: SZ3-linker-ABS-linker-SZ4-eGFP) (designed binder)
